Data reported in patent publication US20110105394A1 (Novo Nordisk, published 2011).
One block for each binder: values may come before it. *1 amine or outer side, *2 acyl side, *3 side chain or, on linkers, in order; H or OH if unused. Bridges are numbered along the chain shown (N, C = ends). Where no end group is shown, it is not given here. Side-chain parts run from the residue outwards. The star is where a group is joined. C20 diacid = O=C(O)CCCCCCCCCCCCCCCCCCC(=O)*; γGlu = O=C(O)[C@H](CCC(=O)[*:2])N[*:1]; AEEA = NCCOCCOCC(=O)O

Target: T1, Amylin 3(a) receptor (human calcitonin receptor (CTa) with RAMP-3) (human, UniProt P30988 25-474; O60896 24-148, limits assumed)
T1 sequence (looked up) 1: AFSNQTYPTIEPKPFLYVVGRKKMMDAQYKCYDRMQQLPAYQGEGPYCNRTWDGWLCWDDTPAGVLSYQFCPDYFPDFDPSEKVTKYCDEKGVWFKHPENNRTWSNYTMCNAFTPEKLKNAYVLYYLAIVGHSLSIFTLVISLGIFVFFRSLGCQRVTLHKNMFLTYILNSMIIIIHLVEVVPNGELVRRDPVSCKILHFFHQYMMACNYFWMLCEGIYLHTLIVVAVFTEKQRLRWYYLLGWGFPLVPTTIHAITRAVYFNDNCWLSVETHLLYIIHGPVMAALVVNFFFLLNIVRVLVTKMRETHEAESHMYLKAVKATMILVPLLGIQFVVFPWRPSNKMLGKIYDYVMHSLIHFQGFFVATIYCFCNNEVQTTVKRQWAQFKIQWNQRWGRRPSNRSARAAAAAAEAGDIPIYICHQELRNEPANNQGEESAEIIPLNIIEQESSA
T1 sequence (looked up) 2: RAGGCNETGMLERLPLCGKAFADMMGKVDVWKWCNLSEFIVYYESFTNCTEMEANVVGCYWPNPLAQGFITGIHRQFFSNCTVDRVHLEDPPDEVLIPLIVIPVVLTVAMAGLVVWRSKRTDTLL
Assay: cell-based or functional assay

Binder: KCK([Glu-Glu-Glu-Glu-C20 diacid])TATCATQRLANFLHHSSDNFGPILPPTNVGSNTY-NH2 (disulfide 2-7) [N-epsilon3-(19-carboxynonadecanoyl-Glu-Glu-Glu-Glu)-[Lys3,His17,Asp21]-pramlintide]
- Potency Luciferase: 2000 pmol/L

B2: N-alpha-[(S)-4-Carboxy-4-(19-carboxynonadecanoylamino)butyryl]-His-His-[His1,His17]-pramlintide (peptide)
peptide: HHHCNTATCATQRLANFLHHSSNNFGPILPPTNVGSNTY-NH2
modifications: disulfide 4-9; not fully specified (N-terminus); printed as N-alpha-[(S)-4-Carboxy-4-(19-carboxynonadecanoylamino)butyryl]-His-His-[His1,His17]-pramlintide
- Potency Luciferase: 60 pmol/L

Binder: {C20 diacid-γGlu-AEEA}-HCNTATCATQRLANFLHHSSNNFGPILPPTNVGSNTY-NH2 (disulfide 2-7)
- Potency Luciferase: 90 pmol/L

The next lines start with the values.

- Potency Luciferase: 100 pmol/L
B1: N-alpha-[(S)-4-Carboxy-4-(19-carboxynonadecanoylamino)butyryl]-His-Arg-[His17]-pramlintide (peptide)
peptide: HRKCNTATCATQRLANFLHHSSNNFGPILPPTNVGSNTY-NH2
modifications: disulfide 4-9; not fully specified (N-terminus); printed as N-alpha-[(S)-4-Carboxy-4-(19-carboxynonadecanoylamino)butyryl]-His-Arg-[His17]-pramlintide

- Potency Luciferase: 100 pmol/L
B3: N-alpha-[2-(2-{2-[4-(S)-Carboxy-4-(19-carboxynonadecanoylamino)butyrylamino]ethoxy}ethoxy)acetyl]-His-[His1,His17]-pramlintide (peptide)
peptide: {C20 diacid-γGlu-AEEA}-HHCNTATCATQRLANFLHHSSNNFGPILPPTNVGSNTY-NH2
modifications: disulfide 3-8
SMILES: CC[C@H](C)[C@H](NC(=O)[C@@H]1CCCN1C(=O)CNC(=O)[C@H](Cc1ccccc1)NC(=O)[C@H](CC(N)=O)NC(=O)[C@H](CC(N)=O)NC(=O)[C@H](CO)NC(=O)[C@H](CO)NC(=O)[C@H](Cc1c[nH]cn1)NC(=O)[C@H](Cc1c[nH]cn1)NC(=O)[C@H](CC(C)C)NC(=O)[C@H](Cc1ccccc1)NC(=O)[C@H](CC(N)=O)NC(=O)[C@H](C)NC(=O)[C@H](CC(C)C)NC(=O)[C@H](CCCNC(=N)N)NC(=O)[C@H](CCC(N)=O)NC(=O)[C@@H](NC(=O)[C@H](C)NC(=O)[C@@H]1CSSC[C@H](NC(=O)[C@H](Cc2c[nH]cn2)NC(=O)[C@H](Cc2c[nH]cn2)NC(=O)COCCOCCNC(=O)CC[C@H](NC(=O)CCCCCCCCCCCCCCCCCCC(=O)O)C(=O)O)C(=O)N[C@@H](CC(N)=O)C(=O)N[C@@H]([C@@H](C)O)C(=O)N[C@@H](C)C(=O)N[C@@H]([C@@H](C)O)C(=O)N1)[C@@H](C)O)C(=O)N[C@@H](CC(C)C)C(=O)N1CCC[C@H]1C(=O)N1CCC[C@H]1C(=O)N[C@H](C(=O)N[C@@H](CC(N)=O)C(=O)N[C@H](C(=O)NCC(=O)N[C@@H](CO)C(=O)N[C@@H](CC(N)=O)C(=O)N[C@H](C(=O)N[C@@H](Cc1ccc(O)cc1)C(N)=O)[C@@H](C)O)C(C)C)[C@@H](C)O
